Drawing on patent publication US20250277020A1 (Boehringer Ingelheim, published 2025), this text covers Kd for 24 molecules.

Changes are numbered by the printed parent chain.

First the molecules themselves.
B1: A85 (antibody, human IgG1, kappa, L234A L235A)
light: VVMTQTPLSLPVSLGDQASISCRSSQSIVHYNEKTYLEWYLQKPGQSPQLLIYKVSNRFSGVPDRFSGSGSGTDFTLKISRVEAEDLGVYYCFQGSHFPLTFGQGTKLEIKRTVAAPSVFIFPPSDEQLKSGTASVVCLLNNFYPREAKVQWKVDNALQSGNSQESVTEQDSKDSTYSLSSTLTLSKADYEKHKVYACEVTHQGLSSPVTKSFNRGEC
heavy: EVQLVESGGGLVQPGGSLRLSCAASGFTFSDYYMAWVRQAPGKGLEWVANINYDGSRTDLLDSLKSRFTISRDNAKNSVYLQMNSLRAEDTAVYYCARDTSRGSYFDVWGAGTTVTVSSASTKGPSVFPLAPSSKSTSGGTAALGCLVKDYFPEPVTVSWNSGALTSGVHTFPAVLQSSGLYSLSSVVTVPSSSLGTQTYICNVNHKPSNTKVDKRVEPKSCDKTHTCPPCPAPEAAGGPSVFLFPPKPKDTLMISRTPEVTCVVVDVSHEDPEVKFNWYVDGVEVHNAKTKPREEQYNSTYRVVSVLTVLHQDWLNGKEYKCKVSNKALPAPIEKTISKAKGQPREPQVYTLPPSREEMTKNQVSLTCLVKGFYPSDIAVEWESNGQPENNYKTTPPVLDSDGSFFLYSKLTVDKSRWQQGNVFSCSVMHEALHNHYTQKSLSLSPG
B2: A93 (antibody, human IgG1, kappa, L234A L235A)
light: B1 light with P11S, R23K, E33G, K34N, N57S
heavy: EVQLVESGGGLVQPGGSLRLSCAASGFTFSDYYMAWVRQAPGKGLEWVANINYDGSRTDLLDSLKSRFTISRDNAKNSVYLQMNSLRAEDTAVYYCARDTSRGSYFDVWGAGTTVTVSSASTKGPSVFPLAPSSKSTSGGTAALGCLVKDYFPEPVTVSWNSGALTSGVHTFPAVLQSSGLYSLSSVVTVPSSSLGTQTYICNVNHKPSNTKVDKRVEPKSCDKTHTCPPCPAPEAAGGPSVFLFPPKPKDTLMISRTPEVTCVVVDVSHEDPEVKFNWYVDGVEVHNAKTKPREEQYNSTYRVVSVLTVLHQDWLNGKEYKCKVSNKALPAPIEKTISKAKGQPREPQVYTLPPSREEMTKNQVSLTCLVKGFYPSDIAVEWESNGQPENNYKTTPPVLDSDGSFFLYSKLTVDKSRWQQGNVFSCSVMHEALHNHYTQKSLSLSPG
B3: A100 (antibody, human IgG1, kappa, L234A L235A)
light: B1 light with P11S, R23K, E33G, K34N, N57S, F59A
heavy: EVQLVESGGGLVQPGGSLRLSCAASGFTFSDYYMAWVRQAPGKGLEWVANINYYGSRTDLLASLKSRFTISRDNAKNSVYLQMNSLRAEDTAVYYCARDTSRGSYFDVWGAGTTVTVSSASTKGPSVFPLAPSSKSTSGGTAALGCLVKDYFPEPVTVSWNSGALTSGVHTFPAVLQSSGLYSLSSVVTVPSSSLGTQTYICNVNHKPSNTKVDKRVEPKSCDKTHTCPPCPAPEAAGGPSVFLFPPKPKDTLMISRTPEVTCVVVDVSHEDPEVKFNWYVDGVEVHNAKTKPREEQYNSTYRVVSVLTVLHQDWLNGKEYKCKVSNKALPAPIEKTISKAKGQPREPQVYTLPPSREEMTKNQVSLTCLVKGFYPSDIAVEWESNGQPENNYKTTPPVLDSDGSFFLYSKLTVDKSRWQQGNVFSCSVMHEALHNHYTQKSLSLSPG
B4: A94 (antibody, human IgG1, kappa, L234A L235A, V domains shown)
VH: EVQLVESGGGLVQPGGSLRLSCAASGFTFSDYYMAWVRQAPGKGLEWVANINYEGSRTDLLDSLKSRFTISRDNAKNSVYLQMNSLRAEDTAVYYCARDTSRGSYFDVWGAGTTVTVSS
VL: VVMTQTPLSLSVSLGDQASISCKSSQSIVHYNGNTYLEWYLQKPGQSPQLLIYKVSSRFSGVPDRFSGSGSGTDFTLKISRVEAEDLGVYYCFQGSHFPLTFGQGTKLEIKR
B5: A101 (antibody, human IgG1, kappa, L234A L235A)
light: B1 light with P11S, R23K, E33G, K34N, N57S, F59A
heavy: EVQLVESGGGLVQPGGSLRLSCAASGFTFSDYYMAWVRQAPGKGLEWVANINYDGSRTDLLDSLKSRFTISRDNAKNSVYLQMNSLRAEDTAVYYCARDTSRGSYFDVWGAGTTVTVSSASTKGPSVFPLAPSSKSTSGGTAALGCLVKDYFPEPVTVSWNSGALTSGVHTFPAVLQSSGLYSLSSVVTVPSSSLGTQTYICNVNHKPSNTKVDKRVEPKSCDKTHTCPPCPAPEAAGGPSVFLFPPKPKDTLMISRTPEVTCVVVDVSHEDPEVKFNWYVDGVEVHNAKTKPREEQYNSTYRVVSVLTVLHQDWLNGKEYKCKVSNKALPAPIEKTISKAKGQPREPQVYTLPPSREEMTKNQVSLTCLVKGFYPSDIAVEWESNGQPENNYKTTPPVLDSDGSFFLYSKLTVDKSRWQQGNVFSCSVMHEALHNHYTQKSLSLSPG
B6: A126 (antibody, human IgG1, kappa, L234A L235A, V domains shown)
VH: B4 VH
VL: B4 VL with S11P, K23R, S57N, F59D
B7: A102 (antibody, human IgG1, kappa, L234A L235A)
light: B1 light with P11S, R23K, E33G, K34N, N57S, F59A
heavy: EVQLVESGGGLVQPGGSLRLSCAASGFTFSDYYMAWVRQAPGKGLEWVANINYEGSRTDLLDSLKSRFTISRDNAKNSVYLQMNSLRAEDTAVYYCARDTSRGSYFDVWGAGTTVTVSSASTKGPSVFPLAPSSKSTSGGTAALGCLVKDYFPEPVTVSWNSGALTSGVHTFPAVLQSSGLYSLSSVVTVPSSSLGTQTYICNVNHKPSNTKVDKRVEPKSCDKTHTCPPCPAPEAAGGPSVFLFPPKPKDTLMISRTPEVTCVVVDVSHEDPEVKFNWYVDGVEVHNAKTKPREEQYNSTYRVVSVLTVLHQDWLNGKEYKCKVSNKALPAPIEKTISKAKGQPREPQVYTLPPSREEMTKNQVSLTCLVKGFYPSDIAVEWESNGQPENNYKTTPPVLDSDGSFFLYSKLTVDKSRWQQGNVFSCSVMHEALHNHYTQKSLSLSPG
B8: A98 (antibody, human IgG1, kappa, L234A L235A)
light: B1 light with P11S, R23K, E33G, K34N, N57S, F59A
heavy: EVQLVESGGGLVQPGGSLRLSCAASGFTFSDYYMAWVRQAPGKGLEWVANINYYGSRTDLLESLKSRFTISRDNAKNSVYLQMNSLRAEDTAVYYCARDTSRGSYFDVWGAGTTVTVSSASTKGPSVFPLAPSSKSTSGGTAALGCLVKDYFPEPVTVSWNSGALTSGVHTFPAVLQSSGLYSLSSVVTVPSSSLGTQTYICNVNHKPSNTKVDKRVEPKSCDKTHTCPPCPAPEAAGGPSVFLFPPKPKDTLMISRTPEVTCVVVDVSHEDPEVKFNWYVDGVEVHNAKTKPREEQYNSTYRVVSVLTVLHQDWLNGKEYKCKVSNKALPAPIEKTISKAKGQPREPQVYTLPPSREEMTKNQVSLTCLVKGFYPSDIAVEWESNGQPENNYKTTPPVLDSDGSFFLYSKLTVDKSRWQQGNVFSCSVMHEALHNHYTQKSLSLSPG
B9: A96 (antibody, human IgG1, kappa, L234A L235A)
light: B1 light with P11S, R23K, E33G, K34N, N57S
heavy: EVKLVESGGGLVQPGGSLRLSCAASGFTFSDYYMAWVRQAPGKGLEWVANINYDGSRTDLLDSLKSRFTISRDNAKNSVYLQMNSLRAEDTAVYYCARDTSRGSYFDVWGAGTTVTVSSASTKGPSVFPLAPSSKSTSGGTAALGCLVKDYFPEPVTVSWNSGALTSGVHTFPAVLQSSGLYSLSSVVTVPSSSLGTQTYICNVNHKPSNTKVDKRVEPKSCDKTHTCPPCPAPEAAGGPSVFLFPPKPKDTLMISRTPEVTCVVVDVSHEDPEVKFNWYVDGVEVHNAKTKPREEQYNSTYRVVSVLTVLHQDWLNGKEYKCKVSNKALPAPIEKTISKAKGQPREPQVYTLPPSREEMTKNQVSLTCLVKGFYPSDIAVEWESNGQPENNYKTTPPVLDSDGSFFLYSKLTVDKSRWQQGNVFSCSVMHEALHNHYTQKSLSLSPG
B10: A99 (antibody, human IgG1, kappa, L234A L235A)
light: B1 light with P11S, R23K, E33G, K34N, N57S, F59A
heavy: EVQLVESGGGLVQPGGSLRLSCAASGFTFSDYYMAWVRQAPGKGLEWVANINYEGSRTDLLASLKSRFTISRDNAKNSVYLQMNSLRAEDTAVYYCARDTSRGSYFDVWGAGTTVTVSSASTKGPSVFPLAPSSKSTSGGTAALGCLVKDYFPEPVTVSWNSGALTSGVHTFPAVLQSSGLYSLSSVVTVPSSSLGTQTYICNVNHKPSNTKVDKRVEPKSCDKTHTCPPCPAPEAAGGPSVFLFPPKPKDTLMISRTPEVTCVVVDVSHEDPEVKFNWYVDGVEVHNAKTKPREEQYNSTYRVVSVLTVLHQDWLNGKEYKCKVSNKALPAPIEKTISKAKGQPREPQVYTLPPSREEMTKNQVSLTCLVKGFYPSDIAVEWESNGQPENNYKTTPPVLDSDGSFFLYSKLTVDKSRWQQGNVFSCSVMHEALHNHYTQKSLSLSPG
B11: A91 (antibody, human IgG1, kappa, L234A L235A, V domains shown)
VH: B4 VH with D62A
VL: B4 VL
B12: A88 (antibody, human IgG1, kappa, L234A L235A)
light: B1 light
heavy: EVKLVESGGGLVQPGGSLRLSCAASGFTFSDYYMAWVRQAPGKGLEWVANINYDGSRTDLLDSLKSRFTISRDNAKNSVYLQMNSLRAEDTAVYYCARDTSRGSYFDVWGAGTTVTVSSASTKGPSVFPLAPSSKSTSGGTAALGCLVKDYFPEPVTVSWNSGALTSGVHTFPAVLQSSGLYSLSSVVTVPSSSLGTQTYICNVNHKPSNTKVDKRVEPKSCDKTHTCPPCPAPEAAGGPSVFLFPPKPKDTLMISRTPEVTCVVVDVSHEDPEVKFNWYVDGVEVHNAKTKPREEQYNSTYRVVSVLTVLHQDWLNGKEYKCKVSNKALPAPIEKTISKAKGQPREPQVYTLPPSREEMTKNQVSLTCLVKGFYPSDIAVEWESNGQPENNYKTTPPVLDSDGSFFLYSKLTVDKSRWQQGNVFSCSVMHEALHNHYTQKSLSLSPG
B13: A122 (antibody, human IgG1, kappa, L234A L235A, V domains shown)
VH: B4 VH with E54Y, D62E
VL: B4 VL with S11P, K23R, S57N, F59D
B14: A87 (antibody, human IgG1, kappa, L234A L235A, V domains shown)
VH: B4 VH with E54D, D62E
VL: B4 VL with S11P, K23R, G33E, N34K, S57N
B15: A125 (antibody, human IgG1, kappa, L234A L235A)
light: B1 light with E33G, K34N, F59D
heavy: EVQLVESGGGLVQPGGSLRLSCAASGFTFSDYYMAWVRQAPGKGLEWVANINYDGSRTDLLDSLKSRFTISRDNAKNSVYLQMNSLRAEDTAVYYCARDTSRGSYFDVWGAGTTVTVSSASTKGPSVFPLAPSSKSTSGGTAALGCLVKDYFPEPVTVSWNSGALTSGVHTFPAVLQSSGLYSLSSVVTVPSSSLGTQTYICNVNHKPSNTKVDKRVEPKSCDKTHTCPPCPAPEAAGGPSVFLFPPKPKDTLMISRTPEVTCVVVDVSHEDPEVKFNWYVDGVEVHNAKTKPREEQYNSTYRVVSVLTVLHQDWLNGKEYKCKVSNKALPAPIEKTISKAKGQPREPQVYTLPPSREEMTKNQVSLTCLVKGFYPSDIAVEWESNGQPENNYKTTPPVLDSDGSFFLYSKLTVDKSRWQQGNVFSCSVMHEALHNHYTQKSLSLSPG
B16: A92 (antibody, human IgG1, kappa, L234A L235A, V domains shown)
VH: B4 VH with E54Y, D62A
VL: B4 VL
B17: A95 (antibody, human IgG1, kappa, L234A L235A, V domains shown)
VH: B4 VH with E54D, D62E
VL: B4 VL
B18: A124 (antibody, human IgG1, kappa, L234A L235A, V domains shown)
VH: B4 VH with E54Y, D62A
VL: B4 VL with S11P, K23R, S57N, F59D
B19: A103 (antibody, human IgG1, kappa, L234A L235A)
light: B1 light with P11S, R23K, E33G, K34N, N57S, F59A
heavy: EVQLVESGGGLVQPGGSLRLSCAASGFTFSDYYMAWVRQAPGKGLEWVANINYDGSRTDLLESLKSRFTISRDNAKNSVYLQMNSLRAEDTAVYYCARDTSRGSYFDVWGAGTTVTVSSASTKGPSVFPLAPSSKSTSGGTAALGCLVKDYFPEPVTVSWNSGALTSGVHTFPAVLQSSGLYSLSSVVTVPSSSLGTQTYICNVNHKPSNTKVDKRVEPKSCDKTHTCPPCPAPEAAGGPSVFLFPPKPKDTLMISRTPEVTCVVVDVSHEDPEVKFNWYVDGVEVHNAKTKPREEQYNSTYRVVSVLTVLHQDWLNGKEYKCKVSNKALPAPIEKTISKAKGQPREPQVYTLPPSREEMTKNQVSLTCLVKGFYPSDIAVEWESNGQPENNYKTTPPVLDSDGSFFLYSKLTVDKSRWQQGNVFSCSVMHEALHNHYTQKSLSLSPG
B20: A123 (antibody, human IgG1, kappa, L234A L235A, V domains shown)
VH: B4 VH with D62A
VL: B4 VL with S11P, K23R, S57N, F59D
B21: A89 (antibody, human IgG1, kappa, L234A L235A, V domains shown)
VH: B4 VH with D62E
VL: B4 VL
B22: A104 (antibody, human IgG1, kappa, L234A L235A)
light: B1 light with P11S, R23K, E33G, K34N, N57S, F59A
heavy: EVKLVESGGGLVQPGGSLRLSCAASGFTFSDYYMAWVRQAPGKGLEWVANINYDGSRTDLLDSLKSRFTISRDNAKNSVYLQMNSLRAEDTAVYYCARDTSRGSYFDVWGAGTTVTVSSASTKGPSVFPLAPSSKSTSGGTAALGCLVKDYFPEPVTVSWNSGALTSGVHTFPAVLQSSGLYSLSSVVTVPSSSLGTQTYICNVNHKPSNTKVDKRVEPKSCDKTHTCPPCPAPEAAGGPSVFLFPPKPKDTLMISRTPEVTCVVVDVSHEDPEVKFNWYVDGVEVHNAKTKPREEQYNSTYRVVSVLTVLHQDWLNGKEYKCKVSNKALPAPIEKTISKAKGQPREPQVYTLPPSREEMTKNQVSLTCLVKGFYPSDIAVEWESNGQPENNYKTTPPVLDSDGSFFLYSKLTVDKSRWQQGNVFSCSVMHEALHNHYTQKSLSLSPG
B23: A121 (antibody, human IgG1, kappa, L234A L235A, V domains shown)
VH: B4 VH with D62E
VL: B4 VL with S11P, K23R, S57N, F59D
B24: A90 (antibody, human IgG1, kappa, L234A L235A, V domains shown)
VH: B4 VH with E54Y, D62E
VL: B4 VL

This assay addresses T1, Full-length human CTGF (human, UniProt P29279 27-349).
T1 construct: Corresponds to NCBI NP_001892.1 with the signal peptide omitted; purchased from R&D Systems; also called hCTGF full length; full length CTGF
T1 sequence: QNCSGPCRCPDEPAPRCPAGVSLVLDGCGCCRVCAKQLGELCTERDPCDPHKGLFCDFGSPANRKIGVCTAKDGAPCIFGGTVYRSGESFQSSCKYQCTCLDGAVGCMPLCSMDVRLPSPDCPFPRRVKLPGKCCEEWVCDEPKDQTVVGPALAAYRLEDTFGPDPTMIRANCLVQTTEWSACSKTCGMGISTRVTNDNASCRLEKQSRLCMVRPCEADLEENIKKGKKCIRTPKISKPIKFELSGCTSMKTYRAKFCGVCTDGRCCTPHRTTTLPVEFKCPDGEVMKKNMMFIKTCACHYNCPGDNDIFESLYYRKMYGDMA
Put plainly: SPR, full length CTGF. Background: In SPR one partner is held on a chip, and binding of the other changes the refractive index at the surface.
Broadly, the Kd is the concentration at which binding is half-saturated. The low end stands for a tighter complex, the high end for a looser complex. Consider B1, for which the dissociation constant (Kd) is 0.28 nM. To B2 belongs 0.18 nM. The same measure for B3: 0.13 nM. The same measure for B4: 0.19 nM; for B5: 0.17 nM.

Take B6: the Kd is 0.27 nM. To B7 belongs 0.15 nM; to B8, 0.12 nM; to B9, 0.19 nM. The molecule B10 yielded a dissociation constant Kd of 0.11 nM. The molecule B11 yielded an equilibrium dissociation constant (Kd) of 0.13 nM.

Take B12: the Kd is 0.32 nM.

Turning to B13, the Kd is 0.23 nM. This Kd and that of the molecule before are within 1.5-fold of each other. The molecule B14 returned a Kd of 0.34 nM. B15 showed a Kd of 0.26 nM. B16 came in with a Kd of 0.16 nM.

Regarding B17, the Kd was 0.19 nM.

In turn, B18 displayed a Kd of 0.25 nM. Regarding B19, the affinity, expressed as Kd, was 0.15 nM.

The molecule B20 came in with a Kd of 0.21 nM. The Kd values of the last two molecules are within 1.5-fold of each other. B21 showed an equilibrium dissociation constant (Kd) of 0.16 nM. In turn, B22 gave a Kd of 0.17 nM. As for B23, the Kd amounted to 0.24 nM. B24: the Kd was determined as 0.17 nM.
